According to article PMC11575404:

How the values were obtained:
[1] = molecular target: SARS-CoV-2 N protein truncation NΔN180, Myc-tagged (SARS-CoV-2) (UniProt P0DTC9); assay: cross-linking
[2] = molecular target: SARS-CoV-2 N protein truncation NΔN247, Myc-tagged (SARS-CoV-2) (UniProt P0DTC9); assay: cross-linking

Substance | stoichiometry N [1] | stoichiometry N [2]
SARS-CoV-2 N protein truncation NΔN180, Myc-tagged (from UniProt P0DTC9 181-419) (domain or fragment) | 2 | –
SARS-CoV-2 N protein truncation NΔN247, Myc-tagged (from UniProt P0DTC9 248-419) (domain or fragment) | – | 2
